B1: CD3.23-L7 (AC3364) (bispecific antibody, V domains shown)
VH: EVQLLESGGGIVQPGGSLKLSCAASGFTFNTYAMNWVRQAPGKGLEWVARIRSKYNNYATYYADSVKDRFTISRDDSKNTVYLQMNNLKTEDTAVYYCVRHENFGNSYVSWFAHWGQGTLVTVSS
VL: ELVVTQEPSLTVSPGGTVTLTCRSSNGAVTSSNYANWVQQKPGQAPRGLIGGTNKRAPGTPARFSGSLLGGKAALTLSGVQPEDEAVYYCALWYPNLWVFGGGTKLTVL
B2: CD3.23-D (AC3366) (bispecific antibody, V domains shown)
VH: EVQLLESGGGIVQPGGSLKLSCAASGFTFNTYAMNWVRQAPGKGLEWVARIRSKYNNYATYYADSVKDRFTISRDDSKNTVYLQMNNLKTEDTAVYYCVRHENFGNSYVSWFAHWGQGTLVTVSS
VL: ELVVTQEPSLTVSPGGTVTLTCRSSNGAVTSSNYANWVQQKPGQAPRGLIGGTNKRAPGTPARFSGSLLGGKAALTLSGVQPEDEAVYYCALWYPNLWVFGGGTKLTVL
B3: CD3.38 (AC3367) (bispecific antibody, V domains shown)
VH: EVQLLESGGGIVQPGGSLKLSCAASGFTFNTYAMNWVRQAPGKGLEDVARIRSKYNNYATYYADSVKDRFTISRDDSKNTVYLQMNNLKTEDTAVYYCVRHENFGNSYVSWFAHWGQGTLVTVSS
VL: ELVVTQEPSLTVSPGGTVTLTCRSSNGAVTSSNYANWVQQKPGQAPRGLIGGTNKRAPGTPARFSGSLLGGKAALTLSGVQPEDEAVYYCALWYPNLWVFGGGTKLTVL
B4: CD3.39 (AC3368) (bispecific antibody, V domains shown)
VH: EVQLLESGGGIVQPGGSLKLSCAASGFTFNTYAMNWVRQAPGKGLEEVARIRSKYNNYATYYADSVKDRFTISRDDSKNTVYLQMNNLKTEDTAVYYCVRHENFGNSYVSWFAHWGQGTLVTVSS
VL: ELVVTQEPSLTVSPGGTVTLTCRSSNGAVTSSNYANWVQQKPGQAPRGLIGGTNKRAPGTPARFSGSLLGGKAALTLSGVQPEDEAVYYCALWYPNLWVFGGGTKLTVL
B5: CD3.40 (AC3369) (bispecific antibody, V domains shown)
VH: EVQLLESGGGIVQPGGSLKLSCAASGFTFNTYAMNWVRQAPGKGLEWAARIRSKYNNYATYYADSVKDRFTISRDDSKNTVYLQMNNLKTEDTAVYYCVRHENFGNSYVSWFAHWGQGTLVTVSS
VL: ELVVTQEPSLTVSPGGTVTLTCRSSNGAVTSSNYANWVQQKPGQAPRGLIGGTNKRAPGTPARFSGSLLGGKAALTLSGVQPEDEAVYYCALWYPNLWVFGGGTKLTVL
B6: CD3.41 (AC3370) (bispecific antibody, V domains shown)
VH: EVQLLESGGGIVQPGGSLKLSCAASGFTFNTYAMNWVRQAPGKGLEWEARIRSKYNNYATYYADSVKDRFTISRDDSKNTVYLQMNNLKTEDTAVYYCVRHENFGNSYVSWFAHWGQGTLVTVSS
VL: ELVVTQEPSLTVSPGGTVTLTCRSSNGAVTSSNYANWVQQKPGQAPRGLIGGTNKRAPGTPARFSGSLLGGKAALTLSGVQPEDEAVYYCALWYPNLWVFGGGTKLTVL
B7: CD3.42 (AC3371) (bispecific antibody, V domains shown)
VH: EVQLLESGGGIVQPGGSLKLSCAASGFTFNTYAMNWVRQAPGKGLEWGARIRSKYNNYATYYADSVKDRFTISRDDSKNTVYLQMNNLKTEDTAVYYCVRHENFGNSYVSWFAHWGQGTLVTVSS
VL: ELVVTQEPSLTVSPGGTVTLTCRSSNGAVTSSNYANWVQQKPGQAPRGLIGGTNKRAPGTPARFSGSLLGGKAALTLSGVQPEDEAVYYCALWYPNLWVFGGGTKLTVL
B8: CD3.43 (AC3372) (bispecific antibody, V domains shown)
VH: EVQLLESGGGIVQPGGSLKLSCAASGFTFNTYAMNWVRQAPGKGLEWSARIRSKYNNYATYYADSVKDRFTISRDDSKNTVYLQMNNLKTEDTAVYYCVRHENFGNSYVSWFAHWGQGTLVTVSS
VL: ELVVTQEPSLTVSPGGTVTLTCRSSNGAVTSSNYANWVQQKPGQAPRGLIGGTNKRAPGTPARFSGSLLGGKAALTLSGVQPEDEAVYYCALWYPNLWVFGGGTKLTVL
B9: CD3.44 (AC3373) (bispecific antibody, V domains shown)
VH: EVQLLESGGGIVQPGGSLKLSCAASGFTFNTYAMNWVRQAPGKGLEWTARIRSKYNNYATYYADSVKDRFTISRDDSKNTVYLQMNNLKTEDTAVYYCVRHENFGNSYVSWFAHWGQGTLVTVSS
VL: ELVVTQEPSLTVSPGGTVTLTCRSSNGAVTSSNYANWVQQKPGQAPRGLIGGTNKRAPGTPARFSGSLLGGKAALTLSGVQPEDEAVYYCALWYPNLWVFGGGTKLTVL
B10: CD3.45 (AC3374) (bispecific antibody, V domains shown)
VH: EVQLLESGGGIVQPGGSLKLSCAASGFTFNTYAMNWVRQAPGKGLEWWARIRSKYNNYATYYADSVKDRFTISRDDSKNTVYLQMNNLKTEDTAVYYCVRHENFGNSYVSWFAHWGQGTLVTVSS
VL: ELVVTQEPSLTVSPGGTVTLTCRSSNGAVTSSNYANWVQQKPGQAPRGLIGGTNKRAPGTPARFSGSLLGGKAALTLSGVQPEDEAVYYCALWYPNLWVFGGGTKLTVL
B11: CD3.48 (AC3377) (bispecific antibody, V domains shown)
VH: EVQLLESGGGIVQPGGSLKLSCAASGFTFNTYAMNWVRQAPGKGLEWVGRIRSKYNNYATYYADSVKDRFTISRDDSKNTVYLQMNNLKTEDTAVYYCVRHENFGNSYVSWFAHWGQGTLVTVSS
VL: ELVVTQEPSLTVSPGGTVTLTCRSSNGAVTSSNYANWVQQKPGQAPRGLIGGTNKRAPGTPARFSGSLLGGKAALTLSGVQPEDEAVYYCALWYPNLWVFGGGTKLTVL
B12: CD3.54 (AC3383) (bispecific antibody, V domains shown)
VH: EVQLLESGGGIVQPGGSLKLSCAASGFTFNTYAMNWVRQAPGKGLEWVARARSKYNNYATYYADSVKDRFTISRDDSKNTVYLQMNNLKTEDTAVYYCVRHENFGNSYVSWFAHWGQGTLVTVSS
VL: ELVVTQEPSLTVSPGGTVTLTCRSSNGAVTSSNYANWVQQKPGQAPRGLIGGTNKRAPGTPARFSGSLLGGKAALTLSGVQPEDEAVYYCALWYPNLWVFGGGTKLTVL
B13: CD3.56 (AC3385) (bispecific antibody, V domains shown)
VH: EVQLLESGGGIVQPGGSLKLSCAASGFTFNTYAMNWVRQAPGKGLEWVARTRSKYNNYATYYADSVKDRFTISRDDSKNTVYLQMNNLKTEDTAVYYCVRHENFGNSYVSWFAHWGQGTLVTVSS
VL: ELVVTQEPSLTVSPGGTVTLTCRSSNGAVTSSNYANWVQQKPGQAPRGLIGGTNKRAPGTPARFSGSLLGGKAALTLSGVQPEDEAVYYCALWYPNLWVFGGGTKLTVL
B14: CD3.60 (AC3389) (bispecific antibody, V domains shown)
VH: EVQLLESGGGIVQPGGSLKLSCAASGFTFNTYAMNWVRQAPGKGLEWVARIQSKYNNYATYYADSVKDRFTISRDDSKNTVYLQMNNLKTEDTAVYYCVRHENFGNSYVSWFAHWGQGTLVTVSS
VL: ELVVTQEPSLTVSPGGTVTLTCRSSNGAVTSSNYANWVQQKPGQAPRGLIGGTNKRAPGTPARFSGSLLGGKAALTLSGVQPEDEAVYYCALWYPNLWVFGGGTKLTVL
B15: CD3.67 (AC3396) (bispecific antibody, V domains shown)
VH: EVQLLESGGGIVQPGGSLKLSCAASGFTFNTYAMNWVRQAPGKGLEWVARIRTKYNNYATYYADSVKDRFTISRDDSKNTVYLQMNNLKTEDTAVYYCVRHENFGNSYVSWFAHWGQGTLVTVSS
VL: ELVVTQEPSLTVSPGGTVTLTCRSSNGAVTSSNYANWVQQKPGQAPRGLIGGTNKRAPGTPARFSGSLLGGKAALTLSGVQPEDEAVYYCALWYPNLWVFGGGTKLTVL
B16: CD3.68 (AC3397) (bispecific antibody, V domains shown)
VH: EVQLLESGGGIVQPGGSLKLSCAASGFTFNTYAMNWVRQAPGKGLEWVARIRSPYNNYATYYADSVKDRFTISRDDSKNTVYLQMNNLKTEDTAVYYCVRHENFGNSYVSWFAHWGQGTLVTVSS
VL: ELVVTQEPSLTVSPGGTVTLTCRSSNGAVTSSNYANWVQQKPGQAPRGLIGGTNKRAPGTPARFSGSLLGGKAALTLSGVQPEDEAVYYCALWYPNLWVFGGGTKLTVL
B17: CD3.69 (AC3398) (bispecific antibody, V domains shown)
VH: EVQLLESGGGIVQPGGSLKLSCAASGFTFNTYAMNWVRQAPGKGLEWVARIRSKANNYATYYADSVKDRFTISRDDSKNTVYLQMNNLKTEDTAVYYCVRHENFGNSYVSWFAHWGQGTLVTVSS
VL: ELVVTQEPSLTVSPGGTVTLTCRSSNGAVTSSNYANWVQQKPGQAPRGLIGGTNKRAPGTPARFSGSLLGGKAALTLSGVQPEDEAVYYCALWYPNLWVFGGGTKLTVL
B18: CD3.70 (AC3399) (bispecific antibody, V domains shown)
VH: EVQLLESGGGIVQPGGSLKLSCAASGFTFNTYAMNWVRQAPGKGLEWVARIRSKRNNYATYYADSVKDRFTISRDDSKNTVYLQMNNLKTEDTAVYYCVRHENFGNSYVSWFAHWGQGTLVTVSS
VL: ELVVTQEPSLTVSPGGTVTLTCRSSNGAVTSSNYANWVQQKPGQAPRGLIGGTNKRAPGTPARFSGSLLGGKAALTLSGVQPEDEAVYYCALWYPNLWVFGGGTKLTVL
B19: CD3.71 (AC3400) (bispecific antibody, V domains shown)
VH: EVQLLESGGGIVQPGGSLKLSCAASGFTFNTYAMNWVRQAPGKGLEWVARIRSKGNNYATYYADSVKDRFTISRDDSKNTVYLQMNNLKTEDTAVYYCVRHENFGNSYVSWFAHWGQGTLVTVSS
VL: ELVVTQEPSLTVSPGGTVTLTCRSSNGAVTSSNYANWVQQKPGQAPRGLIGGTNKRAPGTPARFSGSLLGGKAALTLSGVQPEDEAVYYCALWYPNLWVFGGGTKLTVL
B20: CD3.72 (AC3401) (bispecific antibody, V domains shown)
VH: EVQLLESGGGIVQPGGSLKLSCAASGFTFNTYAMNWVRQAPGKGLEWVARIRSKKNNYATYYADSVKDRFTISRDDSKNTVYLQMNNLKTEDTAVYYCVRHENFGNSYVSWFAHWGQGTLVTVSS
VL: ELVVTQEPSLTVSPGGTVTLTCRSSNGAVTSSNYANWVQQKPGQAPRGLIGGTNKRAPGTPARFSGSLLGGKAALTLSGVQPEDEAVYYCALWYPNLWVFGGGTKLTVL
B21: CD3.73 (AC3402) (bispecific antibody, V domains shown)
VH: EVQLLESGGGIVQPGGSLKLSCAASGFTFNTYAMNWVRQAPGKGLEWVARIRSKPNNYATYYADSVKDRFTISRDDSKNTVYLQMNNLKTEDTAVYYCVRHENFGNSYVSWFAHWGQGTLVTVSS
VL: ELVVTQEPSLTVSPGGTVTLTCRSSNGAVTSSNYANWVQQKPGQAPRGLIGGTNKRAPGTPARFSGSLLGGKAALTLSGVQPEDEAVYYCALWYPNLWVFGGGTKLTVL
B22: CD3.74 (AC3403) (bispecific antibody, V domains shown)
VH: EVQLLESGGGIVQPGGSLKLSCAASGFTFNTYAMNWVRQAPGKGLEWVARIRSKTNNYATYYADSVKDRFTISRDDSKNTVYLQMNNLKTEDTAVYYCVRHENFGNSYVSWFAHWGQGTLVTVSS
VL: ELVVTQEPSLTVSPGGTVTLTCRSSNGAVTSSNYANWVQQKPGQAPRGLIGGTNKRAPGTPARFSGSLLGGKAALTLSGVQPEDEAVYYCALWYPNLWVFGGGTKLTVL

Molecular target: CD3 (target of the Pool 1 CD3.23 screen)
Test: Octet, crude lysate

CD3 (target of the Pool 1 CD3.23 screen), sequence (P07766 23-126): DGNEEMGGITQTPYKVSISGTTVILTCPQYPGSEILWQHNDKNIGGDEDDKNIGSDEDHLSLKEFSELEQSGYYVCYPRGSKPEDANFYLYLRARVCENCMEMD

In order of falling Kd:
1. B10  34300 nM
2. B12  1180 nM
3. B14  434 nM
4. B13  425 nM
5. B6  165 nM
6. B7  71.5 nM
7. B16  51 nM
8. B3  40.2 nM
9. B21  33.1 nM
10. B19  20.1 nM
11. B4  18.1 nM
12. B2  14 nM
13. B17  11.5 nM
14. B8  11.2 nM
15. B22  11.1 nM
16. B1  8.5 nM
17. B5  8.3 nM
18. B9  5.7 nM
19. B20  5.1 nM
20. B15  4.8 nM
21. B11  4.5 nM
22. B18  3.8 nM

— patent US20250188184A1
